Assay results from patent US20220298217A1 (FLAGSHIP PIONEERING INNOVATIONS VI, published 2022).

T1: PTHR1 on CHO-K1/Ga15/PTHR1 cells (UniProt Q03431 27-593, limits assumed)
T1 sequence (looked up): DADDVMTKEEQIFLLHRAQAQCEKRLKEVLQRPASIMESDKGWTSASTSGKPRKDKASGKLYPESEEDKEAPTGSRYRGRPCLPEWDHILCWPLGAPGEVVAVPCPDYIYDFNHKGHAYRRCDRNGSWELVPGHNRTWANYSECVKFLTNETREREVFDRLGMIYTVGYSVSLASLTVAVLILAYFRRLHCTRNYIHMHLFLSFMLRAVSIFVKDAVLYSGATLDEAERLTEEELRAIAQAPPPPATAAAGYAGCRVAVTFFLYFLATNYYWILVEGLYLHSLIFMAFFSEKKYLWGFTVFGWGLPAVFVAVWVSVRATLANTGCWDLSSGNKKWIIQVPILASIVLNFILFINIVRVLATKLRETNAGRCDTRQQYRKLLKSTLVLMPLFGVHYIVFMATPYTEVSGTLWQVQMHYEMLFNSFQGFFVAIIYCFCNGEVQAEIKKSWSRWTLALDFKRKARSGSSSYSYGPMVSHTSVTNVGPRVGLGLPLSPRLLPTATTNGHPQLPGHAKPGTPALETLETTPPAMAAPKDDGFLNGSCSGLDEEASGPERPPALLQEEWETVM

T2: Flag-PTHR1-YFP (UniProt Q03431 27-593)
T2 sequence (looked up): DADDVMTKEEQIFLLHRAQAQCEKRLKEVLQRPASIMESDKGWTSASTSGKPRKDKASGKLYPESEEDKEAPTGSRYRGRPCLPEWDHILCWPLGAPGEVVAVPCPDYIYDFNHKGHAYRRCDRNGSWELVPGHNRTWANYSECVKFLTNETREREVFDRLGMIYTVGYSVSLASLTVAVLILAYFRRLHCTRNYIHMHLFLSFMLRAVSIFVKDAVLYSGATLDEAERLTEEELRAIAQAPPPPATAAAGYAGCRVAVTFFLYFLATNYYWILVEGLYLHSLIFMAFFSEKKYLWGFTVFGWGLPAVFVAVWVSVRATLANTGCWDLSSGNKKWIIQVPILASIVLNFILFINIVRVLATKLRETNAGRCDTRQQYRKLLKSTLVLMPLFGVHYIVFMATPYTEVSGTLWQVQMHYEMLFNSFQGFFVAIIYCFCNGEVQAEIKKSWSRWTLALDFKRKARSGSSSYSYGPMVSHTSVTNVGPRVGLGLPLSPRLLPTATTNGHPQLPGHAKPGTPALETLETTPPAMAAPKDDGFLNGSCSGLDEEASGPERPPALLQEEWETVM


These binders were tested against T1, PTHR1 on CHO-K1/Ga15/PTHR1 cells (assay: cell-based or functional assay).

Row | Binder | cAMP accumulation (HTRF): -log10EC50 | cAMP accumulation (HTRF): Emax
1 | AVATIQLMTDIAKIRAEYELREMLLRLLEEIF [R2-6] | 3.88 -log10EC50 (as headed) | 294%
2 | GLAALTIGLLRAKLRAEYELREMLLRLLEEIF [R2-24] | -10.4 -log10EC50 (as headed) | 81.4%
3 | GIAVITIMIDYAKLRAEYELREMLLRLLEEIF [R2-22] | -10.1 -log10EC50 (as headed) | 17.6%
4 | AVAEIQLMHQRAKWRAEYELREMLLRLLEEIF [R1-96] | -8.01 -log10EC50 (as headed) | 99.7%
5 | GIAVITLMDLRAYLRAEYELREMLLRLLEEIF [R2-13] | -5.31 -log10EC50 (as headed) | 116%
6 | GIAVLTILDLRAKLRAEYELREMLLRLLEEIF [R2-14] | -11.3 -log10EC50 (as headed) | 117%
7 | LILVEQLMDLRAYLRAEYELREMLLRLLEEIF [R2-16] | -4.71 -log10EC50 (as headed) | 48.7%
8 | GIAVFTIMHLRIYLRAEYELREMLLRLLEEIF [R2-17] | -3.35 -log10EC50 (as headed) | 39.7%
9 | GVAELQLMHFRALLRAEYELREMLLRLLEEIF [R2-7] | -1.58 -log10EC50 (as headed) | 823%
10 | SIIGEQLMLLRALLRAEYELREMLLRLLEEIF [R2-18] | -2.23 -log10EC50 (as headed) | 36.6%
11 | GVYAIQAMHDLAKIRAEYELREMLLRLLEEIF [R2-10] | -4.49 -log10EC50 (as headed) | 1680%
12 | SVMMIQVMHDLAKIRAEYELREMLLRLLEEIF [R2-8] | -7.5 -log10EC50 (as headed) | 19.9%
13 | GVAMIQIMHDIAKIRAEYELREMLLRLLEEIF [R2-2] | -6.73 -log10EC50 (as headed) | 101%
14 | GVAMLQILHDKAKVRAEYELREMLLRLLEEIF [R2-11] | -5.7 -log10EC50 (as headed) | 60.8%
15 | GVALLQIVHDFAKIRAEYELREMLLRLLEEIF [R2-5] |  | 1580%
16 | VDFEIQLMQQRAQWIADYRIREFLDKLIAEIF [R1-94] | -10.1 -log10EC50 (as headed) | 90.8%
17 | GVAEIQLMVDLDIIRAEYELREMLLRLLEEIF [R2-12] | -3.86 -log10EC50 (as headed) | 154%
18 | GVAEIQLMHDIPVIRAEYELREMLLRLLEEIF [R2-3] | -4.93 -log10EC50 (as headed) | 260%
19 | AVAEIQLMHQRAKWELEYELFEMFLKLLEEIF [I1 (R1-100)] | -7.28 -log10EC50 (as headed) | 99.9%
20 | PIPVKDIMDLRAYLRAEYELREMLLRLLEEIF [R2-19] | -4.69 -log10EC50 (as headed) | 324%
21 | LILVKKIIDLRAYLRAEYELREMLLRLLEEIF [R2-21] | -4.67 -log10EC50 (as headed) | 47%
22 | GVSMLQIMHDLAVIRAEYELREMLLRLLEEIF [R2-4] | -5.87 -log10EC50 (as headed) | 10.6%
23 | GVVMLQFMHDVAKIRAEYELREMLLRLLEEIF [R2-9] | 110 -log10EC50 (as headed) | 665%
24 | AVAEIQLMHQRAKWKLELELKVKLLEILKDVY [R2-25] | -7.89 -log10EC50 (as headed) | 96%

More lines, now with the values ahead:

Row | cAMP accumulation (HTRF): -log10EC50 | cAMP accumulation (HTRF): Emax | Binder
25 | -9.98 -log10EC50 (as headed) | 3.99% | GIAVITLMVLRALLELQEIGRKITLELLKEYI [R2-51]
26 | -7.03 -log10EC50 (as headed) | 99.2% | AVAEIQLMHQRAKWGLDLELAVKLQEILKDVL [R2-28]
27 | -7.1 -log10EC50 (as headed) | 97.2% | AVAEIQLMHQRAKWLEELKLKDDLRKILEDVY [R2-30]
28 | -6.91 -log10EC50 (as headed) | 99.1% | AVAEIQLMHQRAKWELLEELLKILLELLKEYI [R2-38]
29 | -7.07 -log10EC50 (as headed) | 96.8% | AVAEIQLMHQRAKWGLELELKEKLRKILEDVY [R2-26]
30 | -14 -log10EC50 (as headed) | 104% | AVAEIQLMHQRAKWGLDLELRARLREILRDVY [R2-31]
31 | -7.91 -log10EC50 (as headed) | 93.3% | AVAEIQLMHQRAKWKLDLELAVSLRKILEDVY [R2-27]
32 | -6.98 -log10EC50 (as headed) | 96.1% | AVAEIQLMHQRAKWRLEIELLKKLKEILKDVY [R2-34]
33 | -10.3 -log10EC50 (as headed) | 98.2% | AVAEIQLMHQRAKWEIQEIGIKITLDLLQTLK [R2-41]
34 | -7.88 -log10EC50 (as headed) | 95% | AVAEIQLMHQRAKWIQDARRRAFLHKLIAEIH [LA-PM-FL (R1-81)]
35 | -5.59 -log10EC50 (as headed) | 97.4% | GIAVITLMLLRAYLELLEELVKILHELLRRYH [R2-52]
36 | -5.79 -log10EC50 (as headed) | 99.9% | GVAELQLMHDLAKIKLELELKVKLLEILKDVY [R2-49]
37 | -7.22 -log10EC50 (as headed) | 97.5% | AVAEIQLMHQRAKWKLELELKEKIRKLLEDLL [R2-29]
38 | -7.1 -log10EC50 (as headed) | 96.9% | AVAEIQLMHQRAKWLNELRLKEEMRKILEDVY [R2-33]
39 | -8.01 -log10EC50 (as headed) | 97% | AVAEIQLMHQRAKWGVELQLKVDLRRILEDVY [R2-35]
40 | -6.51 -log10EC50 (as headed) | 101% | AVAEIQLMHQRAKWKQELELEEKNKKILEDVY [R2-32]
41 | -7.23 -log10EC50 (as headed) | 99.3% | AVAEIQLMHQRAKWELEFELFREFLKLLVDFF [I3 (R1-97)]

These binders were tested against T2, Flag-PTHR1-YFP (assay: cell-based or functional assay).

Row | arrestin 2 recruitment (BRET): -log10EC50 | arrestin 2 recruitment (BRET): Emax | Binder
42 | -8.41 -log10EC50 (as headed) | 7.61 | AVAEIQLMHQRAKWRLEIELLKKLKEILKDVY [R2-34]
43 | -7.7 -log10EC50 (as headed) | 6.88 | AVAEIQLMHQRAKWELQEIGIKITLDLLEAYL [R2-39]
44 | -6.73 -log10EC50 (as headed) | 8.34 | AVAEIQLMHQRAKWSILEELLKILTALLDEYI [R2-46]
45 | -3.46 -log10EC50 (as headed) | 35.8 | AVAEIQLMHQRAKWGVELQLKVDLRRILEDVY [R2-35]
